# Test results: publication PMC11375898 (Frontiers in Pharmacology, 2024)
# Read-outs that look alike come from different tables or passages of the source.
# Assays:
# [1] = in vivo
# Description: The duration of each dose was 0.06 mg for three consecutive days, 0.1 mg for three consecutive days, 0.14 mg for five consecutive days, and 0.2 mg for five consecutive days (Figure 1).
# Blood samples (3 mL) were collected in vacuum tubes containing EDTA-K2 at D-1 and at pre-dosing (0 h) and 5, 10, 15, 20, 25, 30, 40, 50, 60, 90, 120, 150 and 180 min after first administration on D6, D7, D11, D12, and D16. PK blood samples were collected at the time point corresponding to the administration date for blank baseline correction on D-1. The vacuum tubes were pre-cooled in the refrigerator (2°C–8°C) for at least 0.5–1 h before use. As the stabilizer, 30 μL DPP IV inhibitor (10 μL/mL) was immediately added into the blood. The stabilizer-spiked blood samples were kept with wet ice during transportation and were centrifuged at 3,000 rpm for 10 min at 4°C to separate the plasma. Samples were stored at −80°C until analysis.
# The standard curve ranged from 2.0 to 100.0 pM. The accuracy of intra-batch and inter-batch assays values were −16.7%–20.0% and −6.7%–3.2%, respectively.
# The primary PK parameters were maximum observed concentration (Cmax), the area under concentration-time curve from 0 to the last measurable concentration (AUC0-t) and AUC0-inf, whereas the secondary PK parameters were median time to reach maximum concentration (Tmax), terminal half-life time (t1/2), Vz/F, apparent clearance rate (CL/F), terminal elimination rate (λz) and accumulation index (Rac).
# Paired t-tests were used to compare the primary PK parameters between the 0.14 mg and 0.2 mg dose groups. Three doses (0.1, 0.14 and 0.2 mg) were evaluated for proportional dose-response relationships using power model. […] Statistical analysis was performed using SAS 9.4 (SAS Institute, Cary, NC, United States).
# [2] = tested on: adult subjects with overweight/obesity; conditions: in vivo
# Description: (§1) This single center, open, multiple ascending dose study was conducted at the Phase I Clinical Research Center of the Affiliated Hospital of Qingdao University, Qingdao, China. […] The duration of each dose was 0.06 mg for three consecutive days, 0.1 mg for three consecutive days, 0.14 mg for five consecutive days, and 0.2 mg for five consecutive days (Figure 1). All volunteers were hospitalized 2 days before the first dosing and placed on a standardized diet during hospitalization. All participants were required to fast overnight before the first dosing.
# (§2) Safety assessments were conducted by monitoring physical examinations, vital signs (blood pressure, pulse rate, body temperature and respiratory rate), 12-lead ECG, clinical laboratory assays (blood routine, blood biochemistry and urine routine) and AEs. AEs were evaluated by the investigator throughout the study and the severity of AEs was defined in accordance with the Common Terminology Criteria for the Classification of Adverse Events of the National Cancer Institute (NCI CTCAE) version 5.0.
# [3] = parameters: method as in Chen et al., 2024; conditions: week 16, ref Chen et al., 2024, cited from earlier work
# [4] = human, in vivo; cited from earlier work
# [5] = tested on: adult subjects with overweight/obesity; assay: Safety assessment (adverse events, NCI CTCAE 5.0), phase I multiple ascending dose trial; conditions: N = 16
# Description: as §1, §2
# [6] = Total, 0.06-0.2 mg sc three times daily
substance,measurement,setting,value
recombinant human GLP-1 (7-36) [beinaglutide],"Estimate of slope β1, Ln (AUC0-inf), proportional dose-response (power model)",[1],1.01
same,"Estimate of slope β1, Ln (AUC0-t,adj), proportional dose-response (power model)",[1],1.13
same,"Estimate of slope β1, Ln (Cmax), proportional dose-response (power model)",[1],1.13
same,arithmetic mean of CL/Fadj,[1]; sc,6.81 to 7.66 L/min
same,arithmetic mean of Vz/Fadj,[1]; sc,292.55 to 401.87 L
same,"arithmetic mean of t1/2, adj",[1]; sc,29.64 to 42.35 min
same,median of Tmax,[1]; sc,10 to 15 min
same,"median of Tmax,adj",[1]; sc,10 to 15 min
same,time to relief of nausea,[2],≤ 1 h
same,mean weight reduction,[3]; female participants,−6.9%
same,mean weight reduction,[3]; male participants,−4.7%
same,apparent volume of distribution (Vz/F),[4],379 L
same,"AEs leading to death, % of subjects with event",[5]; 0.06 mg sc three times daily,0.0%
same,"AEs leading to death, E (number of events)",[5]; 0.06 mg sc three times daily,0
same,"AEs leading to death, n (subjects with event)",[5]; 0.06 mg sc three times daily,0
same,"Drug-related AEs leading to death, % of subjects with event",[5]; 0.06 mg sc three times daily,0.0%
same,"Drug-related AEs leading to death, E (number of events)",[5]; 0.06 mg sc three times daily,0
same,"Drug-related AEs leading to death, n (subjects with event)",[5]; 0.06 mg sc three times daily,0
same,"AEs leading to death, % of subjects with event",[5]; 0.1 mg sc three times daily,0.0%
same,"AEs leading to death, E (number of events)",[5]; 0.1 mg sc three times daily,0
same,"AEs leading to death, n (subjects with event)",[5]; 0.1 mg sc three times daily,0
same,"Drug-related AEs leading to death, % of subjects with event",[5]; 0.1 mg sc three times daily,0.0%
same,"Drug-related AEs leading to death, E (number of events)",[5]; 0.1 mg sc three times daily,0
same,"Drug-related AEs leading to death, n (subjects with event)",[5]; 0.1 mg sc three times daily,0
same,"AEs leading to death, % of subjects with event",[5]; 0.14 mg sc three times daily,0.0%
same,"AEs leading to death, E (number of events)",[5]; 0.14 mg sc three times daily,0
same,"AEs leading to death, n (subjects with event)",[5]; 0.14 mg sc three times daily,0
same,"Drug-related AEs leading to death, % of subjects with event",[5]; 0.14 mg sc three times daily,0.0%
same,"Drug-related AEs leading to death, E (number of events)",[5]; 0.14 mg sc three times daily,0
same,"Drug-related AEs leading to death, n (subjects with event)",[5]; 0.14 mg sc three times daily,0
same,"AEs leading to death, % of subjects with event",[5]; 0.2 mg sc three times daily,0.0%
same,"AEs leading to death, E (number of events)",[5]; 0.2 mg sc three times daily,0
same,"AEs leading to death, n (subjects with event)",[5]; 0.2 mg sc three times daily,0
same,"Drug-related AEs leading to death, % of subjects with event",[5]; 0.2 mg sc three times daily,0.0%
same,"Drug-related AEs leading to death, E (number of events)",[5]; 0.2 mg sc three times daily,0
same,"Drug-related AEs leading to death, n (subjects with event)",[5]; 0.2 mg sc three times daily,0
same,"AEs leading to death, % of subjects with event",[5]; [6],0.0%
same,"AEs leading to death, E (number of events)",[5]; [6],0
same,"AEs leading to death, n (subjects with event)",[5]; [6],0
same,"Drug-related AEs leading to death, % of subjects with event",[5]; [6],0.0%
same,"Drug-related AEs leading to death, E (number of events)",[5]; [6],0
same,"Drug-related AEs leading to death, n (subjects with event)",[5]; [6],0
